From patent US20240189352A1 (MAX DELBR CK CENTRUM F R MOLEKULARE MEDIZIN IN DER …, published 2024)

B1: RAC2-T001 TCR (TCR, V domains shown)
V domain 1: GENVEQHPSTLSVQEGDSAVIKCTYSDSASNYFPWYKQELGKGPQLIIDIRSNVGEKKDQRIAVTLNKTAKHFSLHITETQPEDSAVYFCAASMGNAGNMLTFGGGTRLMVKP
V domain 2: EPEVTQTPSHQVTQMGQEVILRCVPISNHLYFYWYRQILGQKVEFLVSFYNNEISEKSEIFDDQFSVERPDGSNFTLKIRSTKLEDSAMYFCASSETSGASYEQYFGPGTRLTVT
B2: RAC2-T002 TCR (TCR, V domains shown)
V domain 1: AQSVTQLGSHVSVSEGALVLLRCNYSSSVPPYLFWYVQYPNQGLQLLLKYTTGATLVKGINGFEAEFKKSETSFHLTKPSAHMSDAAEYFCAVGANNLFFGTGTRLTVIP
V domain 2: EPEVTQTPSHQVTQMGQEVILRCVPISNHLYFYWYRQILGQKVEFLVSFYNNEISEKSEIFDDQFSVERPDGSNFTLKIRSTKLEDSAMYFCASSEWRGSSYNEQFFGPGTRLTVL

Columns and labels:
[1] = target: HLA-A2-restricted GNAZ peptide … presented by HLA-A2 (human); assay: cell-based or functional assay
[2] = target: wild-type RAC1/2 peptide presented by HLA-A2 (peptide-loaded T2 cells) (human); assay: cell-based or functional assay

Row | Binder | IFNγ production of T001 TCR-transduced T cells upon coculture with peptide-loaded T2 cells (relative to PMA and ionomycin maximum) [1] [%] | IFNγ production by TCR-transduced T cells (relative to unmodified RAC2^P29L) [2] [%]
1 | B1 | ~30 | –
2 | B2 | – | 35
